Measurements published in patent US7063946B2, “Methods, reagents, kits and apparatus for protein function analysis” (Meso Scale Technologies, LLC., priority 2001, dated 2006).

Key:
[1] = biological target: T1, EGFR-pY992 (SEQ ID NO: 5) (Homo sapiens, UniProt P00533); experiment: Single-well 4-spot assay for multiple peptide-protein interactions; assay type: binding; conditions: 4-spot plate
T1 construct: phosphotyrosine at Tyr992 (chemical modification); purchased New England Peptide, Fitchburg Mass; host or cells: chemical synthesis
Excerpt: Four phosphopeptides and their cognate binding proteins (Table 14) were selected for an integrated assay of multiple peptide-protein interaction in 4-spot Multi-Array plates. The IkBa-24pp peptide and its binding protein, βTRCP, are described in Example 10. […] These phosphotyrosine containing peptides are recognized by different adaptor or effecter proteins of the receptor tyrosine kinase signaling pathway.
These four peptides were coupled to BSA carrier protein through cystine residue. After purification on PD-10 gel filtration columns, the peptide-BSA conjugates were then deposited on the assay domains of a 4-spot multi-array IPR plate (i.e., in one of the four exposed regions of working electrode defined by the dielectric layer) with an automated micro-dispensing system (Bio-Dot Dispenser, Bio-Dot, Irvine Calif.). […] These plates are dried then used or stored under desiccated conditions. A few hours prior to usage the plates were rehydrated and blocked with 3% BSA in PBS. […] The in vitro translated and biotin-labeled proteins were then assayed in the 4-spot multi-array IPR plates under conditions described in Example 10.

[2] = biological target: T2, pY1068 peptide (SEQ ID NO: 7) (Homo sapiens, UniProt P00533); experiment: 96-well screen for phosphopeptide binding proteins, 7-spot IPR plates; conditions: two steps of normalization; top 9 clones
T2 construct: phosphotyrosine at Tyr1068 (chemical modification); purchased New England Peptide, Fitchburg Mass; host or cells: chemical synthesis
Experimental: (§1) A screen was conducted using 7-spot IPR plates. The 7 spot NPT IPR plates are described in more detail in copending Provisional Application No. 60/301,932 (entitled “Assay Plates, Reader Systems and Methods for Luminescence Test Measurements”, filed on Jun. 29, 2001, hereby incorporated by reference) and particularly in the description of Plate Type D in Example 6.1 (NPT IPR plate) and U.S. application Ser. Nos. 10/185,274 and 10/185,363, filed Jun. 28, 2002, each hereby incorporated by reference. These plates consist of a 96 wells with 7 zones (spots) for the immobilization of proteins or other reagents. Each spot was coated with BSA conjugated to either a single phosphopeptide or multiple phosphopeptides.
(§2) The plates were prepared essentially as described in example 12. The seven spots supported, respectively, the following BSA conjugates IkB, pY992, pY1068, pY1148, Myc, “A”, and “6-P”. “A” refers to a conjugate of BSA with multiple peptides: IkB, pY1148, Myc which were then coupled to BSA. “6-P” refers to a conjugate of BSA with the following multiple peptides: IkB, pY1148, pY992, pY1068, Smad3C.
(§3) For the assay, 4 ul from TnT reaction product described above were added to the coated plate containing 50 μl of binding buffer supplemented with 50 ng/well Ru-Streptavidin. The binding reaction was allowed to proceed at room temperature for 1 hour with constant shaking. […] The ECL signals were measured using an imaging plate reader (IPR). The raw data from the IPR reader was then normalized using two steps of normalization. The first round was based on the 50 lowest values for a given specific spot.

[3] = biological target: T3, pY1148 (SEQ ID NO: 9) (Homo sapiens, UniProt P00533); experiment: as above; conditions: two steps of normalization; top 9 clones
T3 construct: phosphotyrosine at Tyr1148 (chemical modification); purchased New England Peptide, Fitchburg Mass; host or cells: chemical synthesis
Experimental: as §1, §2, §3

[4] = biological target: T4, pY992 peptide (SEQ ID NO: 5) (Homo sapiens, UniProt P00533); experiment: as above; conditions: two steps of normalization; top 9 clones
T4 construct: phosphotyrosine at Tyr992 (chemical modification); purchased New England Peptide, Fitchburg Mass; host or cells: chemical synthesis
Experimental: as §1, §2, §3

[5] = biological target: T5, EGFR (Homo sapiens, UniProt P00533); experiment: EGFR binding assay, bound EGFR detected by its tyrosine kinase activity towards pEY
T5 construct: autophosphorylated tyrosines (self-phosphorylated with ATP before use); purchased Sigma Chemical Co, MO
Experimental: Proteins were produced in an in vitro transcription and translation reaction using 40–100 ng of plasmid DNA. […] The unbound components of the reaction containing endogenous kinases were removed by three washes with TT-buffer (25 mM Tris-HCl buffer pH 7.4 and 0.004% Triton), two five minutes washings with high-salt wash buffer (25 mM Tris-HCl buffer pH 7.4, 0.004% Triton, 1M NaCl and 5 mM DTT) and 3 more washes with TT-buffer. […] The unbound EGFR was washed by 4 times washing with TT-buffer (25 mM Tris-HCl buffer pH 7.4 and 0.004% Triton). The amount of EGFR bound to the reticulocyte lysate expressed protein was determined by detecting the kinase activity of EGFR. A tyrosine kinase substrate, 5 nM pEY (poly Glu-Tyr, Sigma, MO) was added in a 50 μl reaction containing 5 mM MgCl2, 5 mM MnCl2, 100 μM ATP, 25 mM Tris-HCl buffer pH 7.4, 0.05 mM Na3VO4, 0.004% TritonX-100, 2 mM DTT and EDTA-free protease inhibitor (Roche Molecular Biochemicals). This mixture was incubated with shaking at room temperature for 1 or 12 hours to allow phosphorylation of the pEY substrate by the EGFR. Following this incubation 45 μl of this mixture was transferred to a SA—NPT IPR plate coated with biotinylated anti-phosphotyrosine antibody (PY20, Zymed labs, CA) followed by incubation for 30 minutes at room temperature to allow the binding of the phosphorylated pEY substrate to the PY20 coated NPT plate. Following this binding step 50 ng Sulfo-TAG labeled anti-phosphotyrosine in buffer containing 25 mM Tris-HCl buffer pH 7.4, 5 mM MgCl2, 0.05 mM Na3VO4, 0.004% TritonX-100, 2 mM DTT and 0.05% IgG was added followed by incubation at room temperature for 30 mm.
The unbound reagents were removed by one time washing with TT-buffer (25 mM Tris-HCl buffer pH 7.4 and 0.004% Triton), and the TAG label was detected in presence of 150 μl IPR assay buffer (0.4 mM Gly-Gly buffer, pH 7.8, 1 mM EDTA, 0.1 M TPA). The ECL signals were measured using an imaging plate reader.

[6] = biological target: T5, EGFR; experiment: EGFR binding assay, bound EGFR detected with TAG labeled anti-EGFR

- ECL signal, spot 4 EGFR-pY992 [1]: 1404
- normalized ECL signal, pY1068 spot [2]: 55
- normalized ECL signal, pY1148 spot [3]: 4
- normalized ECL signal, pY992 spot [4]: 10
- ECL signal ([5]; +EGFR, reaction time 1 hr): 17,966
- ECL signal ([5]; +EGFR, reaction time 12 hr): 39,767
- ECL signal ([5]; no EGFR): 1,695
- ECL signal ([6]; +EGFR): 30,389
- ECL signal ([6]; no EGFR): 2,271
B1: 4419252: IMAGE clone protein: PLCγ (protein)
chain: MAGAASPCANGCGPGAPSDAEVLHLCRSLEVGTVMTLFYSKKSQRPERKTFQVKLETRQITWSRGADKIEGAIDIREIKEIRPGKTSRDFDRYQEDPAFRPDQSHCFVILYGMEFRLKTLSLQATSEDEVNMWIKGLTWLMEDTLQAPTPLQIERWLRKQFYSVDRNREDRISAKDLKNMLSQVNYRVPNMRFLRERLTDLEQRSGDITYGQFAQLYRSLMYSAQKTMDLPFLEASTLRAGERPELCRVSLPEFQQFLLDYQGELWAVDRLQVQEFMLSFLRDPLREIEEPYFFLDEFVTFLFSKENSVWNSQLDAVCPDTMNNPLSHYWISSSHNTYLTGDQFSSESSLEAYARCLRMGCRCIELDCWDGPDGMPVIYHGHTLTTKIKFSDVLHTIKEHAFVASEYPVILSIEDHCSIAQQRNMAQYFKKVLGDTLLTKPVEISADGLPSPNQLKRKILIKHKKLAEGSAYEEVPTSMMYSENDISNSIKNGILYLEDPVNHEWYPHYFVLTSSKIYYSEETSSDQGNEDEEEPKEVSSSTELHSNEKWFHGKLGAGRDGRHIAERLLTEYCIETGAPDGSFLVRESETFVGDYTLSFWRNGKVQHCRIHSRQDAGTPKFFLTDNLVFDSLYDLITHYQQVPLRCNEFEMRLSEPVPQTNAHESKEWYHASLTRAQAEHMLMRVPRDGAFLVRKRNEPNSYAISFRAEGKIKHCRVQQEGQTVMLGNSEFDSLVDLISYYEKHPLYRKMKLRYPINEEALEKIGTAEPDYGALYEGRNPGFYVEANPMPTFKCAVKALFDYKAQREDELTFIKSAIIQNVEKQEGGWWRGDYGGKKQLWFPSNYVEEMVNPVALEPEREHLDENSPLGDLLRGVLDVPACQIAIRPEGKNNRLFVFSISMASVAHWSLDVAADSQEELQDWVKKIREVAQTADARLTEGKIMERRKKIALELSELVVYCRPVPFDEEKIGTERACYRDMSSFPETKAEKYVNKAKGKKFLQYNRLQLSRIYPKGQRLDSSNYDPLPMWICGSQLVALNFQTPDKPMQMNQALFMTGRHCGYVLQPSTMRDEAFDPFDKSSLRGLEPCAISIEVLGARHLPKNGRGIVCPFVEIEVAGAEYDSTKQKTEFVVDNGLNPVWPAKPFHFQISNPEFAFLRFVVYEEDMFSDQNFLAQATFPVKGLKTGYRAVPLKNNYSEDLELASLLIKIDIFPAKENGDLSPFSGTSLRERGSDASGQLFHGRAREGSFESRYQQPFEDFRISQEHLADHFDSRERRAPRRTRVNGDNRL
